Data as given in paper PMC5180592 (Science (New York, N.Y.), 2015).

T1: Nup120 (S. cerevisiae, UniProt P35729 1-1037)
T1 sequence: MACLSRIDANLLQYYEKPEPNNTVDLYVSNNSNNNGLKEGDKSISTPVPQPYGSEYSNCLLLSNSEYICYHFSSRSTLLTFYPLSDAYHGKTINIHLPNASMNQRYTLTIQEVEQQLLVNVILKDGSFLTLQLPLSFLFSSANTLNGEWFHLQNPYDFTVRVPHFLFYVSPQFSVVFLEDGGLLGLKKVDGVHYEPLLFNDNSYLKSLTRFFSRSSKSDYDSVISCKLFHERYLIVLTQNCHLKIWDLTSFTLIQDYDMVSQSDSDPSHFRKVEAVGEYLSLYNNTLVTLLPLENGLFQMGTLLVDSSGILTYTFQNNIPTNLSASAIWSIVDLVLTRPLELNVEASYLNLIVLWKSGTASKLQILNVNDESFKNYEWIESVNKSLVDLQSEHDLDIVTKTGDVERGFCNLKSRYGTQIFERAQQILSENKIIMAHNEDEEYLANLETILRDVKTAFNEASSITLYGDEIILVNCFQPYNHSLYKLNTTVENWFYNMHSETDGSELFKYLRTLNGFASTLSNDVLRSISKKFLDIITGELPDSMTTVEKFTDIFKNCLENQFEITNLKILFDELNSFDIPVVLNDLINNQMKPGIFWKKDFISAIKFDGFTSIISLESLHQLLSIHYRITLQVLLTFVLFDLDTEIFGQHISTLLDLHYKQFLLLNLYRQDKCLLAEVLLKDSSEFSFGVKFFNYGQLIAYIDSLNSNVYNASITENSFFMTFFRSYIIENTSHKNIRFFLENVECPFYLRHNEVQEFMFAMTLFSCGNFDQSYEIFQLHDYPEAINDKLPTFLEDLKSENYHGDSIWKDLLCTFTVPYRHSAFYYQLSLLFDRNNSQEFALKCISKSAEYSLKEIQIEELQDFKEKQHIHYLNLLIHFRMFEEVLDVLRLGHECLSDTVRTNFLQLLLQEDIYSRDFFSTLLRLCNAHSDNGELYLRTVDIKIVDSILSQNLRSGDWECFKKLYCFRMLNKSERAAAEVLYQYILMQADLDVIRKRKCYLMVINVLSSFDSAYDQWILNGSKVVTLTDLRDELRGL

B1: Seh1 (natural protein, S. cerevisiae)
chain: MQPFDSGHDDLVHDVVYDFYGRHVATCSSDQHIKVFKLDKDTSNWELSDSWRAHDSSIVAIDWASPEYGRIIASASYDKTVKLWEEDPDQEECSGRRWNKLCTLNDSKGSLYSVKFAPAHLGLKLACLGNDGILRLYDALEPSDLRSWTLTSEMKVLSIPPANHLQSDFCLSWCPSRFSPEKLAVSALEQAIIYQRGKDGKLHVAAKLPGHKSLIRSISWAPSIGRWYQLIATGCKDGRIRIFKITEKLSPLASEESLTNSNMFDNSADVDMDAQGRSDSNTEEKAELQSNLQVELLSEHDDHNGEVWSVSWNLTGTILSSAGDDGKVRLWKATYSNEFKCMSVITAQQ
B2: Nup85 (natural protein, S. cerevisiae, UniProt P46673 1-744, looked up)
chain: MTIDDSNRLLMDVDQFDFLDDGTAQLSNNKTDEEEQLYKRDPVSGAILVPMTVNDQPIEKNGDKMPLKFKLGPLSYQNMAFITAKDKYKLYPVRIPRLDTSKEFSAYVSGLFEIYRDLGDDRVFNVPTIGVVNSNFAKEHNATVNLAMEAILNELEVFIGRVKDQDGRVNRFYELEESLTVLNCLRTMYFILDGQDVEENRSEFIESLLNWINRSDGEPDEEYIEQVFSVKDSTAGKKVFETQYFWKLLNQLVLRGLLSQAIGCIERSDLLPYLSDTCAVSFDAVSDSIELLKQYPKDSSSTFREWKNLVLKLSQAFGSSATDISGELRDYIEDFLLVIGGNQRKILQYSRTWYESFCGFLLYYIPSLELSAEYLQMSLEANVVDITNDWEQPCVDIISGKIHSILPVMESLDSCTAAFTAMICEAKGLIENIFEGEKNSDDYSNEDNEMLEDLFSYRNGMASYMLNSFAFELCSLGDKELWPVAIGLIALSATGTRSAKKMVIAELLPHYPFVTNDDIEWMLSICVEWRLPEIAKEIYTTLGNQMLSAHNIIESIANFSRAGKYELVKSYSWLLFEASCMEGQKLDDPVLNAIVSKNSPAEDDVIIPQDILDCVVTNSMRQTLAPYAVLSQFYELRDREDWGQALRLLLLLIEFPYLPKHYLVLLVAKFLYPIFLLDDKKLMDEDSVATVIEVIETKWDDADEKSSNLYETIIEADKSLPSSMATLLKNLRKKLNFKLCQAFM
B3: Nup85 C-terminal domain (domain or fragment, S. cerevisiae, UniProt P46673 545-744, looked up)
chain: QMLSAHNIIESIANFSRAGKYELVKSYSWLLFEASCMEGQKLDDPVLNAIVSKNSPAEDDVIIPQDILDCVVTNSMRQTLAPYAVLSQFYELRDREDWGQALRLLLLLIEFPYLPKHYLVLLVAKFLYPIFLLDDKKLMDEDSVATVIEVIETKWDDADEKSSNLYETIIEADKSLPSSMATLLKNLRKKLNFKLCQAFM
B4: synthetic antibody sAB-57 (Fab, V domains shown)
VH: EVQLVESGGGLVQPGGSLRLSCAASGFNVSYSSIHWVRQAPGKGLEWVASIYPYYGSTSYADSVKGRFTISADTSKNTAYLQMNSLRAEDTAVYYCARTGMYFGFFHHSWSNAALDYWGQGTLVTVSS
VL: DIQMTQSPSSLSASVGDRVTITCRASQSVSSAVAWYQQKPGKAPKLLIYSASSLYSGVPSRFSGSRSGTDFTLTISSLQPEDFATYYCQQISQYPITFGQGTKVEIK

Legend:
Nup85 [1] = molecular target: B2; experiment: crystal structure
Nup120 [2] = molecular target: T1, Nup120; experiment: crystal structure
Nup120 [3] = molecular target: T1, Nup120; experiment: SEC
Nup85 [4] = molecular target: Nup85 (S. cerevisiae, UniProt P46673); experiment: crystal structure
Nup145C = Nup145C (S. cerevisiae, UniProt P49687); experiment: crystal structure
Nup145C, sequence (P49687 680-1317): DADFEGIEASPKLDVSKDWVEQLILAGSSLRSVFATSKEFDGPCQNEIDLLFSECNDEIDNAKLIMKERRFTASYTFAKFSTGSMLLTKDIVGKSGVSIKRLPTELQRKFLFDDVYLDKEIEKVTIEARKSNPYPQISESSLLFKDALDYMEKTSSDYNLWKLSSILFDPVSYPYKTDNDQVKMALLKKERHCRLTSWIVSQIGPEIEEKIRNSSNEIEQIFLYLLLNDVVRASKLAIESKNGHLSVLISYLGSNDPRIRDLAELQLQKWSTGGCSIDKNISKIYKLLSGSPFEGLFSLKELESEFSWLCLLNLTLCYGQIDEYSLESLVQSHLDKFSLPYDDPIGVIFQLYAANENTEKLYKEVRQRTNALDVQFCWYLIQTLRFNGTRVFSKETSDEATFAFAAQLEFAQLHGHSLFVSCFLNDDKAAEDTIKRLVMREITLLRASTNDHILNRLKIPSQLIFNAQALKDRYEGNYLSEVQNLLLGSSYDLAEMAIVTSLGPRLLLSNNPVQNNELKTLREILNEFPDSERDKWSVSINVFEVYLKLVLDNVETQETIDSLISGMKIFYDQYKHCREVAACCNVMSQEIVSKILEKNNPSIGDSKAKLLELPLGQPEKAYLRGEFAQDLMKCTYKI

## B1
Nup85 [1]
  binding result: binds

## B2
Nup120 [2]
  binding result: binds

## B3
Nup120 [3]
  binding result: binds

## B4
Nup85 [4]
  binding result: binds
Nup145C
  binding result: binds
